# Measurements from the supplement of paper PMC9112550, “Optimization of the antimicrobial peptide Bac7 by deep mutational scanning” (BMC Biology, 2022).
# Test system: Escherichia coli TOP10
# Assay: shrunken log2 fold change of peptide-encoding DNA abundance (4.5 h post-induction vs induction); higher = less antimicrobial activity (less host growth inhibition)
# Conditions: time post-induction: 4.5 h; library: site-saturation at positions 5, 18, 19, 20
# 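Further: peptides expressed intracellularly from a pBAD plasmid library in pooled LB shake-flask culture, induced with 0.3% L-arabinose, DNA abundance read by NGS, three biological replicates, DESeq2 with apeglm shrinkage.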
row,Sequence,shrunken log2 fold change
1,RRIRARPPRLPRPRPRPSHDPRP,0.225
2,RRIRQRPPRLPRPRPRPYSYPRP,-0.337
3,RRIRSRPPRLPRPRPRPYWRPRP,-0.21
4,RRIRIRPPRLPRPRPRPVMEPRP,-0.194
5,RRIRQRPPRLPRPRPRPQQVPRP,-0.0545
6,RRIRKRPPRLPRPRPRPPTWPRP,0.702
7,RRIRQRPPRLPRPRPRPGKSPRP,-0.103
8,RRIRIRPPRLPRPRPRPCLNPRP,-0.0496
9,RRIRIRPPRLPRPRPRPYNSPRP,-0.0199
10,RRIRMRPPRLPRPRPRPGMFPRP,0.341
11,RRIRGRPPRLPRPRPRPTWHPRP,0.468
12,RRIRYRPPRLPRPRPRPGHTPRP,-0.626
13,RRIRMRPPRLPRPRPRPFKSPRP,-0.0472
14,RRIRDRPPRLPRPRPRPVRPPRP,1.07
15,RRIRMRPPRLPRPRPRPMSFPRP,-0.0179
16,RRIRMRPPRLPRPRPRPEMVPRP,0.0598
17,RRIRPRPPRLPRPRPRPLHHPRP,-0.0808
18,RRIRGRPPRLPRPRPRPRPAPRP,1.07
19,RRIRFRPPRLPRPRPRPAKHPRP,-0.149
20,RRIRCRPPRLPRPRPRPFCYPRP,-0.733
21,RRIRARPPRLPRPRPRPGSAPRP,0.444
22,RRIRSRPPRLPRPRPRPSEGPRP,-0.559
23,RRIRWRPPRLPRPRPRPIEPPRP,0.0341
24,RRIRMRPPRLPRPRPRPRGMPRP,0.861
25,RRIRTRPPRLPRPRPRPDYPPRP,0.0242

row,Sequence,shrunken log2 fold change
1,RRIRTRPPRLPRPRPRPSAMPRP,-0.0978
2,RRIRDRPPRLPRPRPRPMAAPRP,0.0982
3,RRIRHRPPRLPRPRPRPVRHPRP,0.251
4,RRIRYRPPRLPRPRPRPNIVPRP,-0.224
5,RRIRERPPRLPRPRPRPCLAPRP,-0.526
6,RRIRDRPPRLPRPRPRPGMLPRP,-0.0263
7,RRIRRRPPRLPRPRPRPEHIPRP,-0.13
8,RRIRARPPRLPRPRPRPFPHPRP,0.146
9,RRIRHRPPRLPRPRPRPNSQPRP,-0.346
10,RRIRWRPPRLPRPRPRPVCPPRP,0.142
11,RRIRWRPPRLPRPRPRPKWLPRP,0.19
12,RRIRPRPPRLPRPRPRPVVDPRP,-0.107
13,RRIRRRPPRLPRPRPRPTITPRP,0.0541
14,RRIRYRPPRLPRPRPRPVLIPRP,-0.00211
15,RRIRWRPPRLPRPRPRPHSSPRP,-0.0864
16,RRIRARPPRLPRPRPRPFQYPRP,0.0189
17,RRIRFRPPRLPRPRPRPICEPRP,-0.0168
18,RRIRQRPPRLPRPRPRPITHPRP,-0.102
19,RRIRGRPPRLPRPRPRPDNEPRP,1.84
20,RRIRCRPPRLPRPRPRPHLRPRP,0.144
21,RRIRKRPPRLPRPRPRPLIGPRP,0.28
22,RRIRLRPPRLPRPRPRPVGFPRP,0.212
23,RRIRQRPPRLPRPRPRPPIIPRP,-0.0647
24,RRIRPRPPRLPRPRPRPFHMPRP,-0.301
25,RRIRLRPPRLPRPRPRPWVNPRP,-0.271

row,Sequence,shrunken log2 fold change
1,RRIRARPPRLPRPRPRPWQMPRP,-0.0506
2,RRIRWRPPRLPRPRPRPFLRPRP,0.0966
3,RRIRQRPPRLPRPRPRPPNHPRP,-0.157
4,RRIRNRPPRLPRPRPRPDNSPRP,-0.188
5,RRIRYRPPRLPRPRPRPRAMPRP,-0.0749
6,RRIRRRPPRLPRPRPRPTDQPRP,0.552
7,RRIRSRPPRLPRPRPRPRYHPRP,-0.339
8,RRIRGRPPRLPRPRPRPDQTPRP,0.0112
9,RRIRKRPPRLPRPRPRPYCNPRP,0.068
10,RRIRRRPPRLPRPRPRPLPIPRP,0.451
11,RRIRVRPPRLPRPRPRPHGVPRP,0.0673
12,RRIRKRPPRLPRPRPRPIVRPRP,-0.0167
13,RRIRLRPPRLPRPRPRPWIMPRP,-0.224
14,RRIRRRPPRLPRPRPRPCVYPRP,-0.42
15,RRIRCRPPRLPRPRPRPGWAPRP,0.606
16,RRIRDRPPRLPRPRPRPMISPRP,0.185
17,RRIRERPPRLPRPRPRPCMDPRP,-0.151
18,RRIRFRPPRLPRPRPRPCHRPRP,-0.113
19,RRIRGRPPRLPRPRPRPQRQPRP,0.687
20,RRIRPRPPRLPRPRPRPEIPPRP,0.0702
21,RRIRARPPRLPRPRPRPFIVPRP,-0.286
22,RRIRERPPRLPRPRPRPWYKPRP,-0.0738
23,RRIRGRPPRLPRPRPRPEDDPRP,2.81
24,RRIRKRPPRLPRPRPRPIVYPRP,-0.0564
25,RRIRMRPPRLPRPRPRPICDPRP,0.36

row,Sequence,shrunken log2 fold change
1,RRIRRRPPRLPRPRPRPWWKPRP,0.226
2,RRIRWRPPRLPRPRPRPIRTPRP,-0.228
3,RRIRTRPPRLPRPRPRPGRSPRP,0.194
4,RRIRERPPRLPRPRPRPWSHPRP,-0.168
5,RRIRLRPPRLPRPRPRPCLGPRP,-0.25
6,RRIRPRPPRLPRPRPRPYFSPRP,-0.31
7,RRIRLRPPRLPRPRPRPLCLPRP,-0.392
8,RRIRTRPPRLPRPRPRPGCQPRP,-0.0154
9,RRIRYRPPRLPRPRPRPYVAPRP,-0.206
10,RRIRKRPPRLPRPRPRPTFIPRP,-0.0546
11,RRIRLRPPRLPRPRPRPWCVPRP,-0.35
12,RRIRDRPPRLPRPRPRPEATPRP,1.98
13,RRIRARPPRLPRPRPRPSCEPRP,0.128
14,RRIRMRPPRLPRPRPRPVRMPRP,0.132
15,RRIRMRPPRLPRPRPRPEFSPRP,1.51
16,RRIRIRPPRLPRPRPRPFTPPRP,-0.875
17,RRIRGRPPRLPRPRPRPCGKPRP,0.0957
18,RRIRIRPPRLPRPRPRPMETPRP,-0.0335
19,RRIRSRPPRLPRPRPRPQMRPRP,0.691
20,RRIRVRPPRLPRPRPRPRTGPRP,-0.0024
21,RRIRNRPPRLPRPRPRPRDDPRP,0.145
22,RRIRGRPPRLPRPRPRPDRIPRP,0.286
23,RRIRQRPPRLPRPRPRPCQQPRP,-0.0108
24,RRIRKRPPRLPRPRPRPCCIPRP,0.243
25,RRIRARPPRLPRPRPRPINHPRP,-0.376

row,Sequence,shrunken log2 fold change
1,RRIRHRPPRLPRPRPRPGVYPRP,-0.138
2,RRIRERPPRLPRPRPRPFNMPRP,-0.236
3,RRIRGRPPRLPRPRPRPIILPRP,0.197
4,RRIRKRPPRLPRPRPRPRFKPRP,0.52
5,RRIRNRPPRLPRPRPRPFARPRP,-0.113
6,RRIRYRPPRLPRPRPRPIMYPRP,-0.0119
7,RRIRIRPPRLPRPRPRPVGWPRP,0.668
8,RRIRWRPPRLPRPRPRPEMEPRP,0.451
9,RRIRFRPPRLPRPRPRPPPQPRP,1.33
10,RRIRKRPPRLPRPRPRPMPSPRP,0.0546
11,RRIRERPPRLPRPRPRPQEDPRP,-0.0088
12,RRIRKRPPRLPRPRPRPLFYPRP,-0.0645
13,RRIRDRPPRLPRPRPRPHYFPRP,-0.119
14,RRIRSRPPRLPRPRPRPCICPRP,-0.209
15,RRIRMRPPRLPRPRPRPEDHPRP,1.29
16,RRIRQRPPRLPRPRPRPQVLPRP,0.00177
17,RRIRLRPPRLPRPRPRPHEEPRP,0.13
18,RRIRNRPPRLPRPRPRPFWIPRP,0.0948
19,RRIRCRPPRLPRPRPRPKHCPRP,-0.166
20,RRIRFRPPRLPRPRPRPFTEPRP,-0.869
21,RRIRLRPPRLPRPRPRPRKGPRP,0.0226
22,RRIRSRPPRLPRPRPRPHRHPRP,-0.0713
23,RRIRKRPPRLPRPRPRPPQVPRP,0.00672
24,RRIRTRPPRLPRPRPRPPQIPRP,0.16
25,RRIRIRPPRLPRPRPRPAVKPRP,-0.0893

row,Sequence,shrunken log2 fold change
1,RRIRFRPPRLPRPRPRPPITPRP,-0.389
2,RRIRERPPRLPRPRPRPVKGPRP,0.0229
3,RRIRWRPPRLPRPRPRPQTCPRP,0.108
4,RRIRWRPPRLPRPRPRPNTYPRP,0.0764
5,RRIRERPPRLPRPRPRPSDPPRP,-0.417
6,RRIRFRPPRLPRPRPRPGKFPRP,0.138
7,RRIRVRPPRLPRPRPRPHQIPRP,0.12
8,RRIRERPPRLPRPRPRPTCFPRP,-0.133
9,RRIRMRPPRLPRPRPRPCDLPRP,0.041
10,RRIRARPPRLPRPRPRPMRFPRP,0.869
11,RRIRVRPPRLPRPRPRPAPRPRP,0.634
12,RRIRSRPPRLPRPRPRPVYRPRP,-0.398
13,RRIRFRPPRLPRPRPRPYMDPRP,-0.0184
14,RRIRMRPPRLPRPRPRPFAPPRP,0.633
15,RRIRDRPPRLPRPRPRPRDLPRP,0.139
16,RRIRNRPPRLPRPRPRPNMKPRP,-0.48
17,RRIRVRPPRLPRPRPRPPTVPRP,0.167
18,RRIRCRPPRLPRPRPRPNLVPRP,-0.192
19,RRIRLRPPRLPRPRPRPNIYPRP,-0.585
20,RRIRSRPPRLPRPRPRPARVPRP,0.47
21,RRIRVRPPRLPRPRPRPAPDPRP,0.377
22,RRIRHRPPRLPRPRPRPEKPPRP,-0.01
23,RRIRFRPPRLPRPRPRPNMAPRP,-0.245
24,RRIRVRPPRLPRPRPRPVAIPRP,-0.396
25,RRIRERPPRLPRPRPRPKLYPRP,-0.432
